Drawing on PMC3773400, “Intracellular Secretory Leukoprotease Inhibitor Modulates Inositol 1,4,5-Triphosphate Generation and Exerts an Anti-Inflammatory Effect on Neutrophils of Individuals with Cystic Fibrosis and Chronic Obstructive Pulmonary Disease” (BioMed Research International, 2013), this text covers Ki for 1 molecule.

The target in experiment [1] is calpain 1 (UniProt P07384 1-714). As to the kind of experiment: enzyme inhibition kinetics (Calpain-Glo protease assay); cleavage of the calpain substrate Suc-LLVY-aminoluciferin, luminescence; calpastatin 0-80 nM, rhSLPI 0-640 nM; Ki by global curve fit in GraphPad Prism 4.03. The conditions noted are these: both partners purified.
Sequence of calpain 1 (P07384 2-714, chain 1 of 2): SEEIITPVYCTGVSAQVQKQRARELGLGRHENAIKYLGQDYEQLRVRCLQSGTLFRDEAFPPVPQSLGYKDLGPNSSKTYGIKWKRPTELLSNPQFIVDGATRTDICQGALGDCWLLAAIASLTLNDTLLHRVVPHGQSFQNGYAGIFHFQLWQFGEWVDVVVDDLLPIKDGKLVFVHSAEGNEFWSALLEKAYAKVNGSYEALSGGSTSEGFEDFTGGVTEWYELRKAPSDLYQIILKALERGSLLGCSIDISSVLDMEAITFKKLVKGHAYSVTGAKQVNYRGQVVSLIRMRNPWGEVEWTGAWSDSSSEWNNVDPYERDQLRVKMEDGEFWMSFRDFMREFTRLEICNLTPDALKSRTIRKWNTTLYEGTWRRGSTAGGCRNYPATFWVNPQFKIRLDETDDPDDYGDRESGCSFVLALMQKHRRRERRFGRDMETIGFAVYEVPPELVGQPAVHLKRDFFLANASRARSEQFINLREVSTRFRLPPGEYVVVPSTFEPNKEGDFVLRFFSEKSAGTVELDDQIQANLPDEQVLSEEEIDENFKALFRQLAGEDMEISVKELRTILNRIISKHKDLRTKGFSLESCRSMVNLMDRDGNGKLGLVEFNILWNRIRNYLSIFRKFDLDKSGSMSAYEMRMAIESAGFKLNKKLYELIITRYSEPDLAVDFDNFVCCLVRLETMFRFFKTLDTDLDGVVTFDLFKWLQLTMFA
Sequence of calpain 1 (P04632 whole entry, chain 2 of 2, further chain): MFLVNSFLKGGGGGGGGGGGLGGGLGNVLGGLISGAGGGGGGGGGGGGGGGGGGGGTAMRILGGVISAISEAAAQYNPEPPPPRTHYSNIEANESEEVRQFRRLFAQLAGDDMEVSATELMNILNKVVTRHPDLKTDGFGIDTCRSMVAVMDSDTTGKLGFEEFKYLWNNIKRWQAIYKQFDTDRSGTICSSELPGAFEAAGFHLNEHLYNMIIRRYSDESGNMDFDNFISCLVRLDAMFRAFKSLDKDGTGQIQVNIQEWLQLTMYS
Experiment [2] has as its target calpain 2 (UniProt P17655 20-700). The description is as above. Conditions: both partners purified.

A word on the Ki: it is the dissociation constant of the complex between target and ligand, obtained from inhibition or displacement. A lower Ki goes with a stronger hold on the target.

B1: calpastatin (natural protein)
chain: MNPTETKAIPVSQQMEGPHLPNKKKHKKQAVKTEPEKKSQSTKLSVVHEKKSQEGKPKEHTEPKSLPKQASDTGSNDAHNKKAVSRSAEQQPSEKSTEPKTKPQDMISAGGESVAGITAISGKPGDKKKEKKSLTPAVPVESKPDKPSGKSGMDAALDDLIDTLGGPEETEEENTTYTGPEVSDPMSSTYIEELGKREVTIPPKYRELLAKKEGITGPPADSSKPIGPDDAIDALSSDFTCGSPTAAGKKTEKEESTEVLKAQSAGTVRSAAPPQEKKRKVEKDTMSDQALEALSASLGTRQAEPELDLRSIKEVDEAKAKEEKLEKCGEDDETIPSEYRLKPATDKDGKPLLPEPEEKPKPRSESELIDELSEDFDRSECKEKPSKPTEKTEESKAAAPAPVSEAVCRTSMCSIQSAPPEPATLKGTVPDDAVEALADSLGKKEADPEDGKPVMDKVKEKAKEEDREKLGEKEETIPPDYRLEEVKDKDGKPLLPKESKEQLPPMSEDFLLDALSEDFSGPQNASSLKFEDAKLAAAISEVVSQTPASTTQAGAPPRDTSQSDKDLDDALDKLSDSLGQRQPDPDENKPMEDKVKEKAKAEHRDKLGERDDTIPPEYRHLLDDNGQDKPVKPPTKKSEDSKKPADDQDPIDALSGDLDSCPSTTETSQNTAKDKCKKAASSSKAPKNGGKAKDSAKTTEETSKPKDD
modifications: Paper names only 'calpastatin (endogenous calpain inhibitor)'. Supplier, species, isoform and limits are not stated. Full-length human canonical form is assumed; a commercial single inhibitory domain
As for B1, the inhibition constant (Ki) is 5.55 nM in experiment [1] and 1.55 nM in experiment [2].
